Test results as given in paper doi:10.1101/2023.07.27.550818 (bioRxiv, 2023).

Molecular target: the molecule itself
Assay: crystal structure

B1: PcaR (natural protein, P. putida, UniProt Q52154 1-291, looked up)
chain: MSDETLVNDPVNPEPARPASAAMAPPIVASPAKRIQAFTGDPDFMTSLARGLAVIQAFQERKRHLTIAQISHRTEIPRAAVRRCLHTLIKLGYATSDGRTYSLLPKVLTLGHAYLSSTPLAISAQPYLDRISDQLHEAANMATLEGDDILYIARSATVERLISVDLSVGGRLPAYCTSMGRILLAAMDDTSLREYLGRADLKARTSRTLHDPESLFACIQQVRAQGWCVVDQELEQGLRSIAVPIYDASGQVLAALNVSTHVGRVTRSELEQRFLPILLAASRDLCHQLFG
binding result: binds
